Data reported in US7067474B1, “Agents for treating human illnesses based on β-catenin, and the production and use thereof” (Max-Delbruck-Centrum fur Molekulare Medizin, priority 1998, dated 2006).
Entries after “also recorded” stand apart in the source; their conditions may differ.

What was measured:
Assay type in all cases: binding
E-cadherin = molecular target: T1, E-cadherin (Mus musculus, UniProt P09803); experiment: yeast 2-hybrid: interaction of β-catenin mutants with E-cadherin; conditions: alanine mutants
T1 construct: E-cadherin for the amino acids Gin773–Asp884 (cytoplasmatic domain); expressed in transfected cells; host or cells: yeast (two-hybrid, Matchmaker, Clontech)
Protocol: (§1) The mutagenesis of β-catenin in the armadillo repeats 3–8 was carried out by means of the “mutagenesis kit” of the company Clontech according to the producer's record and the mutants were checked by sequencing (FIG. 5). In all mutants the original amino acid was substituted by alanine. For analyzing the interactions the cDNA of human β-catenin (armadillo repeat 3 up to the C-terminal end of the protein) coding for the amino acids Leu218–Leu7 μl or its mutants was cloned into the fusion vector for the activation domain of Gal-4 (pGAD424, Clontech). The cDNA for the binding domains of the interaction partners was cloned into the Lex-A fusion vector BTM 116. To this end, the cDNA of LEF-1 for the amino acids 1–99, conductin for the amino acids Ala342–ARG465; of human APC for the amino acids His1012–Glu1215 (APC 15 amino acid repeats) and for the amino acids Ser1259Asp 1400 (APC 20 amino acid repeats) and E-cadherin for the amino acids Gin773–Asp884 (cytoplasmatic domain) were amplified with the respective primers PCR. The interaction of the Lex-A hybrids with β-catenin and its mutants was quantified by means of the β-galactosidase reporter activity in the yeast 2-hybrid system (report: “Matchmaker”. Clontech) (Tab. 2 and FIG. 6).

[1] = molecular target: T2, APC (20 amino acid repeats) (Homo sapiens, UniProt P25054); experiment: yeast 2-hybrid: interaction of β-catenin mutants with APC 20 amino acid repeats; conditions: for Interaction With APC-20, share of wild type β-catenin interaction: yeast 2-hybrid, alanine mutants
T2 construct: for the amino acids Ser1259Asp 1400 (APC 20 amino acid repeats); expressed in transfected cells; host or cells: yeast (two-hybrid, Matchmaker, Clontech)
T2 sequence (P25054 1253-1394 limits assumed): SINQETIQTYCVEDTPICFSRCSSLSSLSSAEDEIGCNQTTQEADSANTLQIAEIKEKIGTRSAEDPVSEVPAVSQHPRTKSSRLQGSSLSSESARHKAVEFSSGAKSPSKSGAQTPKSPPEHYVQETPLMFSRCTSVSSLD
Protocol: as §1

conductin = molecular target: T3, conductin (Mus musculus, UniProt O88566); experiment: yeast 2-hybrid: interaction of β-catenin mutants with conductin; conditions: for Interaction With Conductin, share of wild type β-catenin interaction: yeast 2-hybrid, alanine mutants
T3 construct: conductin for the amino acids Ala342–ARG465; expressed in transfected cells; host or cells: yeast (two-hybrid, Matchmaker, Clontech)
Protocol: as §1

[2] = molecular target: T4, APC (15 amino acid repeats) (Homo sapiens, UniProt P25054); experiment: yeast 2-hybrid: interaction of β-catenin mutants with APC 15 amino acid repeats; conditions: yeast 2-hybrid, alanine mutants
T4 construct: of human APC for the amino acids His1012–Glu1215 (APC 15 amino acid repeats); expressed in transfected cells; host or cells: yeast (two-hybrid, Matchmaker, Clontech)
T4 sequence (P25054 1006-1209 limits assumed): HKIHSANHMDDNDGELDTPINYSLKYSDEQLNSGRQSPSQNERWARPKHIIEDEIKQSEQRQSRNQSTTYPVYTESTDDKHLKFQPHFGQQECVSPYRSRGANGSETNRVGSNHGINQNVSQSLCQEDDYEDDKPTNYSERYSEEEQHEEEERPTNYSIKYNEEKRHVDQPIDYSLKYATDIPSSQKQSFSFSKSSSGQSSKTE
Protocol: as §1

LEF-1 = molecular target: T5, LEF-1 (Mus musculus, UniProt P27782); experiment: yeast 2-hybrid: interaction of β-catenin mutants with LEF-1; conditions: for Interaction With LEF-1, share of wild type β-catenin interaction: yeast 2-hybrid, alanine mutants; for interaction with LEF-1/TCF-4: β-catenin mutation, in words
T5 construct: the cDNA of LEF-1 for the amino acids 1–99; expressed in transfected cells; host or cells: yeast (two-hybrid, Matchmaker, Clontech)
Protocol: as §1

T5 sequence (P27782 1-99): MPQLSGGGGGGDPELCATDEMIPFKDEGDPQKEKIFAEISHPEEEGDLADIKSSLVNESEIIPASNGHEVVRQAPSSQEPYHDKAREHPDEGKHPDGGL
T3 sequence (O88566 343-465 limits assumed): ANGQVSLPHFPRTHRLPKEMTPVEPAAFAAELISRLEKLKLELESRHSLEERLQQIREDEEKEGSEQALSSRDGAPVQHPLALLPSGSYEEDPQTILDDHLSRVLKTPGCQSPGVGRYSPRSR
T1 sequence (P09803 773-884): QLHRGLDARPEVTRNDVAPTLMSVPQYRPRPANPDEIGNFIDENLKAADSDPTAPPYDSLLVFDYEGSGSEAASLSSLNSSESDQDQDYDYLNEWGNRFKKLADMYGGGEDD

Row | Molecule | Interaction With E-Cadherin, share of wild type β-catenin interaction (E-cadherin) | Interaction With APC-20, share of wild type β-catenin interaction [1] | Interaction With Conductin, share of wild type β-catenin interaction (conductin) | Interaction With APC-15, share of wild type β-catenin interaction [2] | Interaction With LEF-1, share of wild type β-catenin interaction (LEF-1) | interaction with LEF-1/TCF-4 (LEF-1) | interaction with conductin (conductin; β-catenin mutation, in words) | interaction with APC 20aa ([1]; β-catenin mutation, in words)
1 | Lys 435: human β-catenin mutant, Lys 435 substituted by alanine (arm 8) (protein, left off: large carriers; small tags and cut ends) LHNLSHHREGLLAIFKSGGIPALVKMLGSPVDSVLFYAITTLHNLLLHQEGAKMAVRLAGGLQKMVALLNKTNVKFLAITTDCLQILAYGNQESKLIILASGGPQALVNIMRTYTYEKLLWTTSRVLKVLSVCSSNKPAIVEAGGMQALGLHLTDPSQRLVQNCLWTLRNLSDAATKQEGMEGLLGTLVQLLGSDDINVVTCAAGILSNLTCNNYKNAMMVCQVGGIEALVRTVLRAGDREDITEPAICALRHLTSRHQEAEMAQNAVRLHYGLPVVVKLLHPPSHWPLIKATVGLIRNLALCPANHAPLREQGAIPRLVQLLVRAHQDTQRRTSMGGTQQQFVEGVRMEEIVEGCTGALHILARDVHNRIVIRGLNTIPLFVQLLYSPIENIQRVAAGVLCELAQDKEAAEAIEAEGATAPLTELLHSRNEGVATYAAAVLFRMSEDKPQDYKKRLSVELTSSLFRTEPMAWNETADLGLDIGAQGEPLGYRQDDPSYRSFHSGGYGQDALGMDPMMEHEMGGHHPGADYPVDGLPDLGHAQDLMDGLPPGDSNQLAWFDTDL | — (Interactions marked by — correspond to 60–100% of the wild type interaction) | — (Interactions marked by — correspond to 60–100% of the wild type interaction) | 42% | 30% | — (Interactions marked by — correspond to 60–100% of the wild type interaction) | blocking the interaction |  | 
2 | His 470: human β-catenin mutant, His 470 substituted by alanine (arm 8) (protein, left off: large carriers; small tags and cut ends) LHNLSHHREGLLAIFKSGGIPALVKMLGSPVDSVLFYAITTLHNLLLHQEGAKMAVRLAGGLQKMVALLNKTNVKFLAITTDCLQILAYGNQESKLIILASGGPQALVNIMRTYTYEKLLWTTSRVLKVLSVCSSNKPAIVEAGGMQALGLHLTDPSQRLVQNCLWTLRNLSDAATKQEGMEGLLGTLVQLLGSDDINVVTCAAGILSNLTCNNYKNKMMVCQVGGIEALVRTVLRAGDREDITEPAICALRALTSRHQEAEMAQNAVRLHYGLPVVVKLLHPPSHWPLIKATVGLIRNLALCPANHAPLREQGAIPRLVQLLVRAHQDTQRRTSMGGTQQQFVEGVRMEEIVEGCTGALHILARDVHNRIVIRGLNTIPLFVQLLYSPIENIQRVAAGVLCELAQDKEAAEAIEAEGATAPLTELLHSRNEGVATYAAAVLFRMSEDKPQDYKKRLSVELTSSLFRTEPMAWNETADLGLDIGAQGEPLGYRQDDPSYRSFHSGGYGQDALGMDPMMEHEMGGHHPGADYPVDGLPDLGHAQDLMDGLPPGDSNQLAWFDTDL | — (Interactions marked by — correspond to 60–100% of the wild type interaction) | 47% | — (Interactions marked by — correspond to 60–100% of the wild type interaction) | 60% |  | blocking the interaction; also recorded: no interaction with LEF-1/TCF-4 |  | 
3 | Phe 253: human β-catenin mutant, Phe 253 substituted by alanine (arm 3) (protein, left off: large carriers; small tags and cut ends) LHNLSHHREGLLAIFKSGGIPALVKMLGSPVDSVLAYAITTLHNLLLHQEGAKMAVRLAGGLQKMVALLNKTNVKFLAITTDCLQILAYGNQESKLIILASGGPQALVNIMRTYTYEKLLWTTSRVLKVLSVCSSNKPAIVEAGGMQALGLHLTDPSQRLVQNCLWTLRNLSDAATKQEGMEGLLGTLVQLLGSDDINVVTCAAGILSNLTCNNYKNKMMVCQVGGIEALVRTVLRAGDREDITEPAICALRHLTSRHQEAEMAQNAVRLHYGLPVVVKLLHPPSHWPLIKATVGLIRNLALCPANHAPLREQGAIPRLVQLLVRAHQDTQRRTSMGGTQQQFVEGVRMEEIVEGCTGALHILARDVHNRIVIRGLNTIPLFVQLLYSPIENIQRVAAGVLCELAQDKEAAEAIEAEGATAPLTELLHSRNEGVATYAAAVLFRMSEDKPQDYKKRLSVELTSSLFRTEPMAWNETADLGLDIGAQGEPLGYRQDDPSYRSFHSGGYGQDALGMDPMMEHEMGGHHPGADYPVDGLPDLGHAQDLMDGLPPGDSNQLAWFDTDL | — (Interactions marked by — correspond to 60–100% of the wild type interaction) | 40% | 17% | — (Interactions marked by — correspond to 60–100% of the wild type interaction) | — (Interactions marked by — correspond to 60–100% of the wild type interaction) |  | no interaction with conductin | 
4 | Trp 383: human β-catenin mutant, Trp 383 substituted by alanine (arm 6) (protein, left off: large carriers; small tags and cut ends) LHNLSHHREGLLAIFKSGGIPALVKMLGSPVDSVLFYAITTLHNLLLHQEGAKMAVRLAGGLQKMVALLNKTNVKFLAITTDCLQILAYGNQESKLIILASGGPQALVNIMRTYTYEKLLWTTSRVLKVLSVCSSNKPAIVEAGGMQALGLHLTDPSQRLVQNCLATLRNLSDAATKQEGMEGLLGTLVQLLGSDDINVVTCAAGILSNLTCNNYKNKMMVCQVGGIEALVRTVLRAGDREDITEPAICALRHLTSRHQEAEMAQNAVRLHYGLPVVVKLLHPPSHWPLIKATVGLIRNLALCPANHAPLREQGAIPRLVQLLVRAHQDTQRRTSMGGTQQQFVEGVRMEEIVEGCTGALHILARDVHNRIVIRGLNTIPLFVQLLYSPIENIQRVAAGVLCELAQDKEAAEAIEAEGATAPLTELLHSRNEGVATYAAAVLFRMSEDKPQDYKKRLSVELTSSLFRTEPMAWNETADLGLDIGAQGEPLGYRQDDPSYRSFHSGGYGQDALGMDPMMEHEMGGHHPGADYPVDGLPDLGHAQDLMDGLPPGDSNQLAWFDTDL | — (Interactions marked by — correspond to 60–100% of the wild type interaction) | 0% | — (Interactions marked by — correspond to 60–100% of the wild type interaction) | 59% | — (Interactions marked by — correspond to 60–100% of the wild type interaction) |  |  | no interaction with APC 20aa
